The stoichiometry N is the number of molecules, sites or subunits per partner or assembly.

Where “and” joins values, the source holds several entries; their conditions need not be identical. Equal values may be shown once.

Stoichiometry N data for two substances are collected here from paper PMC5595413.

Experiment [1] has as its target C41S SqrR (R. capsulatus). Kind of experiment: SEC + cross-linking.
Experiment [2] concerns the target C107S SqrR (R. capsulatus). Kind of experiment: SEC + cross-linking.

C41S SqrR (natural protein): the stoichiometry N in experiment [1] was found to be 2.
With C107S SqrR (natural protein), in experiment [2], the stoichiometry N was 2 and 4.
